Test results: the DeepSol protein solubility set

Test: soluble on expression in E. coli; label from the status in PepcDB or PDB records

| Sequence | soluble on expression in E. coli |
| --- | --- |
| MGSDKIHHHHHHMITTTIFPGRYVQGAGAINILEEELSRFGERAFVVIDDFVDKNVLGENFFSSFTKVRVNKQIFGGECSDEEIERLSGLVEEETDVVVGIGGGKTLDTAKAVAYKLKKPVVIVPTIASTDAPCSALSVIYTPNGEFKRYLFLPRNPDVVLVDTEIVAKAPARFLVAGMGDALATWFEAESCKQKYAPNMTGRLGSMTAYALARLCYETLLEYGVLAKRSVEEKSVTPALEKIVEANTLLSGLGFESGGLAAAHAIHNGLTVLENTHKYLHGEKVAIGVLASLFLTDKPRKMIEEVYSFCEEVGLPTTLAEIGLDGVSDEDLMKVAEKACDKNETIHNEPQPVTSKDVFFALKAADRYGRMRKNLT | soluble |
| MGSDKIHHHHHHAENNDDCFRGVPLQVKLPAGILSETMQDINIYVFDGSDRLLDILPIRSLEPVILSYPGIPSLHCIAWGNTQDGTMYVSPLKTGDPLSAGFISLKPSAVTRAQKSIFISPTDLFYGELNVDNTSTSNRIEEKEMSVSRMVASMNITIRGLELLSQSNEGVYSIVVHETASRVDFEGRYGGDPASYAFSPRFEAGKDYIIPPFNLFPTTVGSGISIDIYRNGSLLRSISTDSGNQPILPVVGKTLNVLLNFRLDVDVELALTGWGEEYIWKEYN | not soluble |
| MAHHHHHHMKPTKPLLYITGYGPFLEVTENPSATIAQSVAEQVRQSGEADVHHETLDVNLEAVSKYFNRLNESVTAHLEATHPENRVLLVNVGLHSREKEKVLRLEVRAFNELEGNPIDDELPLSTCKDSAFVKGCKLETTTALIEELNAIERNGSDHHEKPRWIISYDAGRYYCNYALYRGVKMQEALNSRVFAVFLHIVASTVVCMEEQVAQVRMLVSHLLKHMEAVE | soluble |
| MSLADSSYYDEDYRPQYHFTPEANWMNDPNGMVYYAGEYHLFYQYHPYGLQWGPMHWGHAVSKDLVTWEHLPVALYPDEKGTIFSGSAVVDKNNTSGFQTGKEKPLVAIYTQDREGHQVQSIAYSNDKGRTWTKYAGNPVIPNPGKKDFRDPKVFWYEKEKKWVMVLAAGDRILIYTSKNLKQWTYASEFGQDQGSHGGVWECPDLFELPVDGNPNQKKWVMQVSVGNGAVSGGSGMQYFVGDFDGTHFKNENPPNKVLWTDYGRDFYAAVSWSDIPSTDSRRLWLGWMSNWQYANDVPTSPWRSATSIPRELKLKAFTEGVRVVQTPVKELETIRGTSKKWKNLTISPASHNVLAGQSGDAYEINAEFKVSPGSAAEFGFKVRTGENQFTKVGYDRRNAKLFVDRSESGNDTFNPAFNTGKETAPLKPVNGKVKLRIFVDRSSVEVFGNDGKQVITDIILPDRSSKGLELYAANGGVKVKSLTIHPLKKVWGTTPFMSNMTGWTTVNGTWADTIEGKQGRSDGDSFILSSASGSDFTYESDITIKDGNGRGAGALMFRSDKDAKNGYLANVDAKHDLVKFFKFENGAASVIAEYKTPIDVNKKYHLKTEAEGDRFKIYLDDRLVIDAHDSVFSEGQFGLNVWDATAVFQNVTKESEGHHHHHH | soluble |
| SLDGELDTQPLIEQLWQAGKRVYLPVLHPFSPGNLLFLHYHPQSALVTNRLNIREPRLDVRDVLPLAKLDVLVTPLVAFDEGGQRLGMGGGFYDRTLQNWQQHKILPVGYAHDCQLVEKLPVEEWDIPLPAVVTPSKIWEW | soluble |
| MGHHHHHHSHMTDDKDVLRDVWFGRIPTCFTLYQDEITEREAEPYYLLLPRVSYLTLVTDKVKKHFQKVMRQEDISEIWFEYEGTPLKWHYPIGLLFDLLASSSALPWNITVHFKSFPEKDLLHCPSKDAIEAHFMSCMKEADALKHKSQVINEMQKKDHKQLWMGLQNDRFDQFWAINRKLMEYPAEENGFRYIPFRIYQTTTERPFIQKLFRPVAADGQLHTLGDLLKEVCPSAIDPEDGEKKNQVMIHGIEPMLETPLQWLSEHLSYPDNFLHISIIPQPTD | not soluble |
| MGSDKIHHHHHHMDKLQRISEAIKSKKKLVVMFSGGVDSTLLAKLAREVLGKNAVALTIDSPVIPRKEIEEAKNLANLIGIRHEFIELNELKSRHLIENPPDRCYLCRKLRDNIVKNWARENGFDVIADGLNFSDLQDYRPGVKASTEDGIWHPFIDFEVTKEEIREYSKKLGLPTWDKPAMACLCSRFPYGFGLNEERVRMVEKAENFLRELGFREVRVRFFPYKTAVVEVGRDEMELLMGKRTDIVLALQKIGFSFVTLDLEGFASGKLNRTIEGMSK | not soluble |
| MGSDKIHHHHHHMKKVLVIRNDKLGDFMLAWPAFAMLKASDPSLKLTALVPTYTAEIARACPYLDEVIIDVPKGDKAAFQRLVNDIKAQRFDAMISFFSNTHNAKLAWKCRIPYRLAPATKWVQFFYNHRLVQRRSQSAKPEFAYNLDLARRFLQDQSIAVVEPRPPYLSFPKSAVDFQREFLCLQLNVDSSKKWIFVHSGSGGSANNLSLAQYAALIRGLLAQFDAYVILTAGPNESEKAHELAGLVQDARVVVYDKNKGLVDFAQSLACADLFIAGSTGPLHLSGALNVPTIGFYPSRRSATPLRWQPINDEAKHLAFCPSNDKASQTDLSKISIEEKLAKMIRFITKVWHAADK | not soluble |
| MGSDKIHHHHHHMAYNDSTKQYQRMLASYTRTGIETAIPGTKEEGIMRYRTMIYTIVNESLSTSYPLTRQLLTAQEWDDTVHRYFSTHACTSPYLWRMPLEFYEYIQEEQSALLIKYPCLSDLLLFEWVEIEVFMMEDEEVLHKTEGAVETDALVLNPACAVQYFQYPVYAKRAAEITPADAAHYFMLTHRNPETGNVAFLEIAPMFARMFEWLTEEAMSVDQLISRFTEESQLALAADSRINIVSFFKNCLSKRIILGFN | not soluble |
| MGSDKIHHHHHHMTLRARIQTAVSLVYPARCLNCGGLVESDFGLCGACWRDTTFISGLVCEGCGAPLPGEDDGQMVHCDACLRAPGEWDRGRAALVYTGQGRRLVLALKHGDRTDLVRPASAWMARAARVLLSPKPLLVPVPLHWTRLLHRRYNQSALLAQAIAAREECDCCPDALIRVAKTPMLEGYSRSERRALLSDAIRPNPRMASRLKGRRVLLVDDVMTSGSTLSACARACMDAGAKSTNVAVLARVTGS | not soluble |
| MSLMVIRPVERSDVSALMQLASKTGGGLTSLPANEATLSARIERAIKTWQGELPKSEQGYVFVLEDSETGTVAGICAIEVAVGLNDPWYNYRVGTLVHASKELNVYNALPTLFLSNDHTGSSELCTLFLDPDWRKEGNGYLLSKSRFMFMAAFRDKFNDKVVAEMRGVIDEHGYSPFWQSLGKRFFSMDFSRADFLCGTGQKAFIAELMPKHPIYTHFLSQEAQDVIGQVHPQTAPARAVLEKEGFRYRNYIDIFDGGPTLECDIDRVRAIRKSRLVEVAEGQPAQGDFPACLVANENYHHFRVVLVRTDPATERLILTAAQLDALKCHAGDRVRLVRLCAEEKTAEGHHHHHH | soluble |
| MKAYKLLTTASIGALMLGMSTAAYSDNWRYAHEEYEGDVQDVFAQAFKGYVEDNSDHTVQVYRFGELGESDDIMEQTQNGILQFVNQSPGFTGSLIPSAQIFFIPYLMPTDMDTVLEFFDESKAINEMFPKLYAEHGLELLKMYPEGEMVVTADEPITSPEDFDNKKIRTMTNPLLAETYKAFGATPTPLPWGEVYGGLQTGIIDGQENPIFWIESGGLYEVSPNLTFTSHGWFTTAMMANQDFYEGLSEEDQQLVQDAADAAYDHTIEHIKGLSEESLEKIKAASDEVTVTRLNDEQIQAFKERAPQVEEKFIEMTGEQGQELLDQFKADLKAVQSESEG | soluble |
| MGAFDRVKAQVASDSKWTSAPYKGFVAGSPSNTYIDIVSTAFEDATNTMNFARHSKYDEMYSPYLGSFRERHNYTSIAPSLCINKTNRAIEYDLAPHKAYNPRQSEWLLEKDKKYRVRGARNLIYTKSASDISLPPLTRRTFTVPTDTLRHQNQFLYWNGRALGLDYVAPFLRREDYSRHEDRRYQRIYWSPHFIDLLPSCRHSAHLMLSAY | not soluble |
| MGHHHHHHSHMAASFAFLRDVRPYKTSWRVQVKVLHSWCQYTNMTGETLKLVLVNSQGVKIHASVKKDLVSKYVNNLPLNEWTFIETFALNHASGQFRPTGHLYKMSFVTGTQVIRCDS | soluble |
| SDLVITQELARAESQQDAASLKKAYELIKSANLGKSEFDPSESFSPDLFVLCAEQALKMRQPEVSEDCIQMYFKVKAPITQFLGRAHLCRAQMCAPKSAENLEEFENCVTEYMKAINFAKGEPRYYFLVYNASVLYWQMVRPFLKPGYRHHLIPSLSQIINVLSQTEEEDKEWRAELMLELLECYLQAGRKEEAARFCSTAAPFIKSHVPQKYRQIFSVMVNQRIRNRDVRSNFLKSHCSENCVEIT | soluble |
| MGPSRWPRGGGRLLGRLYLVVTPRPGWSLEATLDRTERALAGGVEVVQLRAKDWEARPTLALGERMLALARRYGVPFFLNDRPDLAALLGADGVHLGQNDLTPEEARRFFAGMVGRSTHAPEQALRALEEGVDYLSVGPVWETPTKPGRPAAGLAYVRWAAENLGEKPWYAIGGIDLGNLDQVLEAGARRIVVVRAILDAPDPERAARALRERLYGVA | soluble |
| MEGLFNAIKDTVTAAINNDGAKLGTSIVSIVENGVGLLGKLFGF | soluble |
| MPQQNYLDELTPAFTSLLAIKEASRCLLCHDAPCSQACPAQTDPGKFIRSIYFRNFKGAAETIRENNALGAVCARVCPTEKLCQSGCTRAGVDAPIDIGRLQRFVTDFEQQTGMEIYQPGTKTLGKVAIIGAGPAGLQASVTLTNQGYDVTIYEKEAHPGGWLRNGIPQFRLPQSVLDAEIARIEKMGVTIKCNNEVGNTLTLEQLKAENRAVLVTVGLSSGSGLPLFEHSDVEIAVDFLQRARQAQGDISIPQSALIIGGGDVAMDVASTLKVLGCQAVTCVAREELDEFPASEKEFTSARELGVSIIDGFTPVAVEGNKVTFKHVRLSGELTMAADKIILAVGQHARLDAFAELEPQRNTIKTQNYQTRDPQVFAAGDIVEGDKTVVYAVKTGKEAAEAIHHYLEGACSC | not soluble |
| MVADSQPGHIDQIKQTNAGAVYRLIDQLGPVSRIDLSRLAQLAPASITKIVREMLEAHLVQELEIKEAGSRGRPAVGLMVETEAWHYLSIRISRGEIFLALRDLSSKLVVEECLPLPLTEATPLLERIITHVDRFFTRHQQKLERLTSIAITLPGIIDTENGVVHRMPYYEDVKEMPLGDSLERHTGVPVYIQHDISAWTMAEALFGASRGARDVIQVVIDHNVGAGVITDGHLLHAGSSSLVEIGHTQVDPYGKRCYCGNHGCLETIASVDSVLELTQLRLNQSMSSMLHGQPLTVDSLCQAAMQGDLLAKDIISGVGAHVGRILAIMVNLFNPQKILIGSPLSKAADILFPAIADSIRQQALPAYSRNTVVESTQFTNQGTMAGAALVKDAMYNGSLLIRLLQG | not soluble |
| MSLPREKVVRVWDEREVVYSPKRWRILWEKREKALKIMELLKDFDPHVYGSVARGDVRRDSDIDIVIPYRVPSYLIELALGDLIQRRRIVMATPWHLIKGHIEIDEETTVTFFLVDPTDRELEFYKWGGMLDLWGVKTKQRVPGVNKKLILIIPTDKGHIEREVVGREAEVAKILGVSVDIVEERVKVLTRRDRIGRTGIYLDEEVPDWKSFEEFLKELADRDPNIRRRVRESLEGHHHHHH | not soluble |
| GSSGSSGQFSDMRISINQTPGKSLDFGFTIKWDIPGIFVASVEAGSPAEFSQLQVDDEIIAINNTKFSYNDSKEWEEAMAKAQETGHLVMDVRRYGK | soluble |
| MGSDKIHHHHHHMTESQALIWDETFPSLLLKGQGTTSFLHGQTTADVFAQKELDRIFMCCWLSTKGALKAVLEIRLSDDMAEIVIICGEINSIRDGFESVIFPADKVKLEVIDPIRRRQEINNNSSWKDSDFSWIDDNTFSIDGITKYKKATKEELEGWKIRQGIPSFDKEMNGETNPYELGLADTINLDKGCYLGQEAMAKFFRSKSLKYQLRYWEAYGENDNFQIGKKFFNTNKNEGYKKNVGVVTSSIRVDDNFFNGLALIKKTFLDHDFCFSENGDSITIKKPISFTNPF | not soluble |
